Test results reported in patent US20240190987A1, “Engineered EpCam Binding Antibodies” (TigaTX, priority 2021, published 2024).

Assay: Differential scanning fluorimetry (DSF) melting temperature
Type: physicochemical
Procedure: DSF was performed on a LC480 Lightcycler Instrument II (Roche). Purified recombinant protein was diluted to 5 μM in DSF buffer (PBS, pH 7.4, Sypro Orange 5×) with small molecule (10 μM VTX) or vehicle (0.05% DMSO) and then heated with a temperature gradient (0.01° C./s) from 25 to 95° C. Data were continuously acquired at ˜465 nm (excitation) and ˜580 nm (emission). Data was analyzed to generate first derivative curves in which the curve maximum was reported as the melting temperature of the protein.

[1] = thermostability by DSF, Table 26

B1: Ab1018: anti-EpCAM binding domain, FIGS. 8A-8C (antibody, V domains shown)
VH: EVQLVESGGGLVQPGGSLRLSCAASGFTFSNYWMNWVRQAPGKGLEWVAQIRVKSENFATHYADSVKGRFTISRDDSKSTVYLQMNSLRAEDTAVYYCTLYEGFSWGQGTLVTVSS
VL: DIQMTQSPSSLSASVGDRVTITCSASSSVSSGNFHWYQQKPGKAPKLLIYRTSNLASGVPSRFSGSGSGTDYTLTISSLQPEDFATYYCQQWSGYPYTFGQGTKVEIK
[1]
  TM (° C.): 69.9 °C

B2: Ab1020: anti-EpCAM binding domain, FIGS. 8A-8C (antibody, V domains shown)
VH: EVQLVESGGGLVQPGGSLRLSCAASGFTFSNYWMHWVRQAPGKGLEWVAQIRVKSENFATHYADSVKGRFTISRDDSKSTVYLQMNSLRAEDTAVYYCTLYDGFSWGQGTLVTVSS
VL: DIQMTQSPSSLSASVGDRVTITCSASSSVSSGNFHWYQQKPGKAPKLLIYRTSNLASGVPSRFSGSGSGTDYTLTISSLQPEDFATYYCQQWSGYPYTFGQGTKVEIK
[1]
  TM (° C.): 68 °C

B3: Ab1024: anti-EpCAM binding domain, FIGS. 8A-8C (antibody, V domains shown)
VH: EVQLVESGGGLVQPGGSLRLSCAASGFTFSNYWMNWVRQAPGKGLEWVAQIRVKSENFATHYVDSVKGRFTISRDDSKSTVYLQMNSLRAEDTAVYYCTLYDGFSWGQGTLVTVSS
VL: DIQMTQSPSSLSASVGDRVTITCSASSSVSSGNFHWYQQKPGKAPKLLIYRTSNLASGVPSRFSGSGSGTDYTLTISSLQPEDFATYYCQQWSGYPYTFGQGTKVEIK
[1]
  TM (° C.): 73.2 °C

B4: Ab1065 (antibody, V domains shown)
VH: EVQLVESGGGLVQPGGSLRLSCAASGFTFSNYWMNWVRQAPGKGLEWVAQIRVKSENFATHYADSVKGRFTISRDDSKSTVYLQMNSLRAEDTAVYYCTLYEGFSWGQGTLVTVSS
VL: DIQMTQSPSSLSASVGDRVTITCSASSSVSSGNFHWYQQKPGKAPKLLIYRTSNLASGVPSRFSGSGSGTDYTLTISSLQPEDFATYYCQQASGYPYTFGQGTKVEIK
[1]
  TM (° C.): 72.3 °C

B5: Ab1066: anti-EpCAM binding domain, FIGS. 8A-8C (antibody, V domains shown)
VH: EVQLVESGGGLVQPGGSLRLSCAASGFTFSNYWMNWVRQAPGKGLEWVAQIRVKSENFATHYADSVKGRFTISRDDSKSTVYLQMNSLRAEDTAVYYCTLYDAFSWGQGTLVTVSS
VL: DIQMTQSPSSLSASVGDRVTITCSASSSVSSGNFHWYQQKPGKAPKLLIYRTSNLASGVPSRFSGSGSGTDYTLTISSLQPEDFATYYCQQASGYPYTFGQGTKVEIK
[1]
  TM (° C.): 70.4 °C

B6: Ab1026: anti-EpCAM binding domain, FIGS. 8A-8C (antibody, V domains shown)
VH: EVQLVESGGGLVQPGGSLRLSCAASGFTFSNYWMNWVRQAPGKGLEWVAQIRVKSENFATHYADSVKGRFTISRDDSKSTVYLQMNSLRAEDTAVYYCTLYDGFSWGQGTLVTVSS
VL: DIQMTQSPSSLSASVGDRVTITCSASSSVSSGNFHWYQQKPGKAPKLLIYRTSNLASGVPSRFSGSGSGTDYTLTISSLQPEDFATYYCQQASGYPYTFGQGTKVEIK
[1]
  TM (° C.): 69.1 °C

B7: Ab1022: anti-EpCAM binding domain, FIGS. 8A-8C (antibody, V domains shown)
VH: EVQLVESGGGLVQPGGSLRLSCAASGFTFSNYWMNWVRQHPGKGLEWVAQIRVKSENFATHYADSVKGRFTISRDDSKSTVYLQMNSLRAEDTAVYYCTLYDGFSWGQGTLVTVSS
VL: DIQMTQSPSSLSASVGDRVTITCSASSSVSSGNFHWYQQKPGKAPKLLIYRTSNLASGVPSRFSGSGSGTDYTLTISSLQPEDFATYYCQQWSGYPYTFGQGTKVEIK
[1]
  TM (° C.): 69.6 °C

B8: Ab0898: humanized LS2A R2M34 (antibody)
heavy: QVQLVQSGAEVKKPGASVKVSCKASGYTFTSYWMHWVRQHPGQGLEWMGIIHPNSGGTSYAQKFQGRVTMTRDTSTSTVYMELSSLRSEDTAVYYCAMGDYVSRDYWGQGTLVTVSSGGGGSGGGGSGGGGSEIVLTQSPGTLSLSPGERATLSCRASSSVSSSYLHWYQQKPGQAPRLLIYSTSSRATGIPDRFSGSGSGTDFTLTISRLEPEDFAVYYCQQYSGYQFTFGQGTKLEIKGGGGSDKTHTCPPCPAPEAAGGPSVFLFPPKPKDTLMISRTPEVTCVVVDVSHEDPEVKFNWYVDGVEVHNAKTKPREEQYNSTYRVVSVLTVLHQDWLNGKEYKCKVSNKALGAPIEKTISKAKGQPREPQVYTLPPSRDELTKNQVSLTCLVKGFYPSDIAVEWESNGQPENNYKTTPPVLDSDGSFFLYSKLTVDKSRWQQGNVFSCSVMHEALHNHYTQKSLSLSPGK
modifications: light chain not cited; REGION 1..472: note = Ab0898 HC
notes: humanized LS2A R2M34
scFv-Fc format, LS2A R3 (Table 20)
  TM (° C.): 52.5 °C

B9: Ab1069: anti-EpCAM T-LITE (CT) antibody, FIGS. 8A-8C, 9C (protein)
light: DIQMTQSPSSLSASVGDRVTITCSASSSVSSGNFHWYQQKPGKAPKLLIYRTSNLASGVPSRFSGSGSGTDYTLTISSLQPEDFATYYCQQWSGYPYTFGQGTKVEIKRTVAAPSVFIFPPSDEQLKSGTASVVCLLNNFYPREAKVQWKVDNALQSGNSQESVTEQDSKDSTYSLSSTLTLSKADYEKHKVYACEVTHQGLSSPVTKSFNRGEC
heavy 1: QVQLVQSGAEVKKPGASVKVSCKASGYTFTSYWMHWVRQHPGQGLEWMGMIHPNSGGTNYAQKFQGRVTMTRDTSTSTVYMELSSLRSEDTAVYYCAMGDYVSRDYWGQGTLVTVSSGGGGSGGGGSGGGGSEIVLTQSPGTLSLSPGERATLSCRASSSVSSSYLHWYQQKPGQAPRLLIYSTSSRATGIPDRFSGSGSGTDFTLTISRLEPEDFAVYYCQQYSGYQFTFGQGTKLEIKGGGGSDKTHTCPPCPAPEAAGGPSVFLFPPKPKDTLMISRTPEVTCVVVDVSHEDPEVKFNWYVDGVEVHNAKTKPREEQYNSTYRVVSVLTVLHQDWLNGKEYKCKVSNKALGAPIEKTISKAKGQPREPMVFDLPPSREEMTKNQVSLWCMVKGFYPSDIAVEWESNGQPENNYKTTPPVLDSDGSFFLYSKLTVDKSRWQQGNVFSCSVMHEALHNHYTQKSLSLSPGKHHHHHH
heavy 2: EVQLVESGGGLVQPGGSLRLSCAASGFTFSNYWMNWVRQAPGKGLEWVAQIRVKSENFATHYADSVKGRFTISRDDSKSTVYLQMNSLRAEDTAVYYCTLYDGFSWGQGTLVTVSSASTKGPSVFPLAPSSKSTSGGTAALGCLVKDYFPEPVTVSWNSGALTSGVHTFPAVLQSSGLYSLSSVVTVPSSSLGTQTYICNVNHKPSNTKVDKKVEPKSCDKTHTCPPCPAPEAAGGPSVFLFPPKPKDTLMISRTPEVTCVVVDVSHEDPEVKFNWYVDGVEVHNAKTKPREEQYNSTYRVVSVLTVLHQDWLNGKEYKCKVSNKALGAPIEKTISKAKGQPREPQVYTLPPIRELMTSNQVSLSCAVKGFYPSDIAVEWESNGQPENNYKTTPPVLDSDGSFFLVSKLTVDKSRWQQGNVFSCSVMHEALHNHYTQKSLSLSPGK
modifications: REGION 1..215: note = Ab1069 Hole LC; REGION 1..478: note = Ab1069 Knob KC; REGION 1..446: note = Ab1069 Hole HC
Thermostability by DSF, Table 27
  TM (° C.): 72.0 °C

B10: Ab0775: anti-CD3 binding domain, FIGS. 7A-7C (antibody)
heavy: EVQLVESGGGLVQPGGSLRLSCAASGFTFNTYAMNWVRQAPGKGLEWVGRIRSKYNNYATYYADSVKGRFTISRDDSKSILYLQMNSLRAEDTAVYYCVRHGNFGNSYVSWFAYWGQGTLVTVSSGGGGSGGGGSGGGGSDIQVTQSPSSLSASVGDRVTITCRSSTGAVTTSNYANWVQQKPGKAFKGLIGGTNKRAPGVPSRFSGSLSGDDATLTISSLQPEDFATYYCALWYSNLWVFGQGTKLEIKGGGGSDKTHTCPPCPAPEAAGGPSVFLFPPKPKDTLMISRTPEVTCVVVDVSHEDPEVKFNWYVDGVEVHNAKTKPREEQYNSTYRVVSVLTVLHQDWLNGKEYKCKVSNKALGAPIEKTISKAKGQPREPQVYTLPPSRDELTKNQVSLTCLVKGFYPSDIAVEWESNGQPENNYKTTPPVLDSDGSFFLYSKLTVDKSRWQQGNVFSCSVMHEALHNHYTQKSLSLSPGK
modifications: light chain not cited; REGION 1..482: note = Ab0775 HC
DSF, hSP34v68 R1 variants (Table 23)
  TM (° C.): 64.1 °C

B11: Ab0785: LS2A R2M34 Fab, His-Tag, Avi-Tag (antibody, V domains shown)
VH: QVQLVQSGAEVKKPGASVKVSCKASGYTFTSYWMHWVRQHPGQGLEWMGIIHPNSGGTSYAQKFQGRVTMTRDTSTSTVYMELSSLRSEDTAVYYCAMGDYVSRDYWGQGTLVTVSS
VL: EIVLTQSPGTLSLSPGERATLSCRASSSVSSSYLHWYQQKPGQAPRLLIYSTSSRATGIPDRFSGSGSGTDFTLTISRLEPEDFAVYYCQQYSGYQFTFGQGTKLEIK
Table 19
  TM (° C.): 70.9 °C

B12: Ab0788: LS2A R3M3 Fab, HC: S58N on R2M34 (antibody)
heavy: QVQLVQSGAEVKKPGASVKVSCKASGYTFTSYWMHWVRQHPGQGLEWMGIIHPNSGGTNYAQKFQGRVTMTRDTSTSTVYMELSSLRSEDTAVYYCAMGDYVSRDYWGQGTLVTVSSASTKGPSVFPLAPSSKSTSGGTAALGCLVKDYFPEPVTVSWNSGALTSGVHTFPAVLQSSGLYSLSSVVTVPSSSLGTQTYICNVNHKPSNTKVDKKVEPKSCGGGGSHHHHHHGGGGSGLNDIFEAQKIEWHEG
VL: EIVLTQSPGTLSLSPGERATLSCRASSSVSSSYLHWYQQKPGQAPRLLIYSTSSRATGIPDRFSGSGSGTDFTLTISRLEPEDFAVYYCQQYSGYQFTFGQGTKLEIK
Table 19
  TM (° C.): 70.1 °C
